Measured values: patent US20220204611A1 (Amgen, published 2022)

T1: recombinant soluble human TREM2 protein (human TREM2 ECD-FlagHis) (human, UniProt Q9NZC2 19-174)
T1 sequence: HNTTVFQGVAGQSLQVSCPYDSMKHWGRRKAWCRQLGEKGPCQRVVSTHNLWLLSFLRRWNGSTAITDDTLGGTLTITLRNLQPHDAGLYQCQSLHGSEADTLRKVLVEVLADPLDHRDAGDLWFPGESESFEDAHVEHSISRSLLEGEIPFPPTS

T2: human TREM2 on cells (human, UniProt Q9NZC2 19-230)
T2 sequence: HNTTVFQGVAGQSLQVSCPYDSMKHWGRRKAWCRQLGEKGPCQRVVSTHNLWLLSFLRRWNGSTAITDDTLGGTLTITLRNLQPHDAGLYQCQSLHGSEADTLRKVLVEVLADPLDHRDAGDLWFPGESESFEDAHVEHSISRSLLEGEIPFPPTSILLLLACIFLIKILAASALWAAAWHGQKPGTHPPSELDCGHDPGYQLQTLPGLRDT

T3: soluble human TREM2 protein (TREM2 ECD-huIgG1 Fc fusion protein) (human, UniProt Q9NZC2 19-174, biotinylated)
T3 construct: also called biotinylated soluble human TREM2 protein
T3 sequence: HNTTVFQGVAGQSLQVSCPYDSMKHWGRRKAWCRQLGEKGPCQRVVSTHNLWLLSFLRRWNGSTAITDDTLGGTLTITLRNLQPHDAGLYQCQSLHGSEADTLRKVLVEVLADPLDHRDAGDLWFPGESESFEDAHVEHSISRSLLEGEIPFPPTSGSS

T4: recombinant soluble cynomolgus TREM2 protein (cynomolgus TREM2 extracellular domain coupled to a Flag/His tag) (cynomolgus, UniProt A0A2K5UY34 49-204)
T4 construct: extracellular domain; also called Cyno TREM2
T4 sequence: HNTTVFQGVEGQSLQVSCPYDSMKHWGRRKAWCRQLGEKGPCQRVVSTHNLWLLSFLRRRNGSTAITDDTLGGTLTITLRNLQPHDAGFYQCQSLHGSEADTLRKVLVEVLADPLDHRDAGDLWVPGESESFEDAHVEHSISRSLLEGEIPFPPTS


Columns and labels:
[1] = target: T1, recombinant soluble human TREM2 protein …; assay: Octet BLI binning; competitor: load Ab 5E3
Method: (§1) Each of sixteen different anti-TREM2 antibodies produced from hybridomas were quantitated and loaded onto one of the anti-human Fc sensors at 5 μg/mL for 2 minutes (“Load Antibody”). The sensor was then blocked with 100 μg/mL of an irrelevant human IgG2 antibody for 5 minutes. […] Next, each of the sixteen different anti-TREM2 antibodies (“Sandwich Antibody”) was added to the sensor at 5 μg/mL and allowed to bind for 5 minutes. All assay buffers contained 10 mM Tris (pH 7.6), 0.1% Triton X-100, 150 mM NaCl, 1 mM CaCl₂, and 1 mg/mL BSA. The assay was conducted at 25° C. Experimental kinetic results were fit to a 1:1 binding model.
(§2) However, if addition of the sandwich antibody produces a binding event, then the sandwich antibody binds to a different epitope on human TREM2 than the load antibody and the two antibodies are categorized into different epitope bins.

[2] = target: T1, recombinant soluble human TREM2 protein …; assay: Octet BLI binning; competitor: load Ab 10E3
Method: as §1, §2

[3] = target: T1, recombinant soluble human TREM2 protein …; assay: Octet BLI binning; competitor: load Ab 24F4
Method: as §1, §2

[4] = target: T1, recombinant soluble human TREM2 protein …; assay: Octet BLI binning; competitor: load Ab 32E3
Method: as §1, §2

[5] = target: T1, recombinant soluble human TREM2 protein …; assay: Octet BLI binning; competitor: load Ab 25F12
Method: as §1, §2

[6] = target: T1, recombinant soluble human TREM2 protein …; assay: Octet BLI binning; competitor: load Ab 6E7
Method: as §1, §2

[7] = target: T1, recombinant soluble human TREM2 protein …; assay: Octet BLI binning; competitor: load Ab 24G6
Method: as §1, §2

[8] = target: T1, recombinant soluble human TREM2 protein …; assay: Octet BLI binning; competitor: load Ab 26A10
Method: as §1, §2

[9] = target: T1, recombinant soluble human TREM2 protein …; assay: Octet BLI binning; competitor: load Ab 26C10
Method: as §1, §2

[10] = target: T1, recombinant soluble human TREM2 protein …; assay: Octet BLI binning; competitor: load Ab 4G10
Method: as §1, §2

[11] = target: T1, recombinant soluble human TREM2 protein …; assay: Octet BLI binning; competitor: load Ab 33B12
Method: as §1, §2

human TREM2 on cells [12] = target: T2, human TREM2 on cells; assay: cell-based or functional assay
[13] = target: T1, recombinant soluble human TREM2 protein …; assay: Octet BLI binning; competitor: load Ab 13E7
Method: as §1, §2

[14] = target: T3, soluble human TREM2 protein (TREM2 …); assay: ELISA, hybridoma supernatant on captured biotinylated TREM2 ECD-Fc
Method: Exhausted hybridoma supernatants were tested for binding to human TREM2 by ELISA. Briefly, neutravidin plates were generated by incubating a 384 well Corning Assay Plate 3702 with neutravidin (Thermo 3100B) at 10 μg/mL (40 μL/well) in 1× PBS at 4° C. overnight. The plates were washed with 1× PBS using a Biotek plate washer and then blocked with 1% milk/1× PBS (90 μL/well) at room temperature (RT) for 30 minutes. The plates were then washed again with 1× PBS using the plate washer. […] The plates were then incubated at RT for 1 hour to immobilize the TREM2 protein to the wells of the plates. Following the incubation, the plates were again washed with 1× PBS using the plate washer. 10 μL of each hybridoma supernatant to be tested and 40 μL of 1% milk/1× PBS (1:5 dilution) were added to each well of the plates and incubated at RT for 1 hour. Again, the plates were washed with 1× PBS using the plate washer. […] After the plates were washed with 1× PBS using the plate washer, 40 μL/well of TMB substrate (Neogen, lot #150114) was added to the plates and the plates were incubated at RT for 30 minutes. The reaction was quenched with 1N hydrochloric acid (40 uL/well) following the incubation period. OD readings at 450 nm were obtained with a plate reader.

[15] = target: T1, recombinant soluble human TREM2 protein …; assay: Octet BLI binning; competitor: load Ab 16B8
Method: as §1, §2

[16] = target: T1, recombinant soluble human TREM2 protein …; assay: Octet BLI binning; competitor: load Ab 4C5
Method: as §1, §2

human TREM2 on cells [17] = target: T2, human TREM2 on cells; assay: cell-based or functional assay; remark: listed apart in the source
[18] = target: T1, recombinant soluble human TREM2 protein …; assay: Octet BLI binning; competitor: load Ab 24A10
Method: as §1, §2

[19] = target: T1, recombinant soluble human TREM2 protein …; assay: Octet BLI binning; competitor: load Ab 26F2
Method: as §1, §2

[20] = target: T4, recombinant soluble cynomolgus TREM2 …; assay: Octet BLI, antibody on anti-human Fc sensor, 25 C
Method: (§3) To quantitate the binding affinity of agonist antibodies for human TREM2, association and dissociation rate constants as well as the equilibrium dissociation constant were determined using anti-human Fc (Kinetic) sensors on an Octet® HTX instrument (Pall ForteBio). Agonist anti-TREM2 antibodies were made up in DMEM null media, 250 μL at 10 μg/mL. The, 250 uL of assay buffer (10 mM Tris (pH 7.6), 0.1% Triton X-100, 150 mM NaCl, 1mM CaCl₂, and 1 mg/mL BSA) was added to the antibody solutions to a final volume of 500 μL and final antibody concentration of 5 μg/mL. The anti-human Fc sensor was pre-incubated in 200 μL of the assay buffer for a minimum of 10 minutes. The sensor was then regenerated for 5 seconds in 10 mM glycine pH 1.5. Test agonist anti-TREM2 antibodies were loaded onto the sensor for 2 minutes, and baseline measurements were taken for 2 minutes. […] The recombinant TREM2 proteins were allowed to associate with the antibody-loaded sensor for 10 minutes, and then dissociation was measured for 10 minutes. The assay was conducted at 25° C. Experimental kinetic results were globally fit to a 1:1 binding model in order to determine the association and dissociation rate constants as well as the equilibrium dissociation constant.

[21] = target: T1, recombinant soluble human TREM2 protein …; assay: Octet BLI, antibody on anti-human Fc sensor, 25 C
Method: as §3

Binder | sandwich binding signal [1] | sandwich binding signal [2] | sandwich binding signal [3] | sandwich binding signal [4] | sandwich binding signal [5] | sandwich binding signal [6] | sandwich binding signal [7] | sandwich binding signal [8] | sandwich binding signal [9] | sandwich binding signal [10] | sandwich binding signal [11] | Emax (% maximum activation compared to RnD antibody) (human TREM2 on cells [12]) [%] | pSyk EC50, differentiated THP-1 cells (human TREM2 on cells [12]) | sandwich binding signal [13] | OD 450 [14] [OD450] | sandwich binding signal [15] | sandwich binding signal [16] | pSyk EC50 (human TREM2 on cells [17]) [nM] | sandwich binding signal [18] | sandwich binding signal [19] | other results
32E3 (antibody, human IgG2, V domains shown, human IgG2 from hybridoma) VH: EVQLVQSGAEVKKPGESLKISCKGSGYSFTSYWIGWVRQMPGKGLEWMGIIYPGDSDTRYSPSFQGQVTISADKSISTAYLQWSTLKASDTAIYYCARHDIIPAAPGAFDIWGQGTMVTVSS VL: EFVLTQSPGTLSLSPGERATLSCRASQIISSNYLAWYQQKPGQAPRLLIYSASSRATGIPDRFSGSGSGTDFTLTISRLEPEDFAVYYCQQFDSSPITFGRGTRLDIK | 0.176 | -0.023 | -0.021 | -0.01 | 0.154 | -0.024 | 0.126 | 0.157 | 0.141 | -0.02 | 0.132 | 197 | 1.25 nM | -0.027 | 1.41 | 0.12 | -0.016 | 1.2 | 0.162 | 0.143 | –
4C5 (antibody, V domains shown, human IgG2 from hybridoma) VH: EVQLVQSGAEVKKPGESLKISCKGSGHSFTNYWIAWVRQMPGKGLEWMGIIYPGDSDTRYSPSFQGQVTISADKSISTAYLQWSSLKASDTAVYFCARQRTFYYDSSGYFDYWGQGTLVTVSS VL: DIQMTQSPSSVSASVGDRVTITCRASQGISNWLAWYQQKPGKAPKLLIYAASSLQVGVPLRFSGSGSGTDFTLTISSLQPEDFATYYCQQADSFPRNFGQGTKLEIK | – | -0.005 | – | -0.01 | 0.265 | – | 0.268 | – | – | -0.011 | – | 265 | 1.72 nM | – | 3.62 | – | -0.014 | 0.18 | – | 0.31 | Kd [20]: 3.6 nM; Kd [21]: 3.1 nM
25F12 (antibody, human IgG2, V domains shown, human IgG2 from hybridoma) VH: QVQLQQWGAGLLKPSETLSLTCAVYGGSFSSYYWSWIRQPPGKGLEWIGEINHSGNTNYNPSLKSRVTISVDTSKNQFSLKLSSVTAADTAVYYCAREGYYDILTGYHDAFDIWDQGTMVTVFS VL: not shown | 0.335 | 0.089 | 0.18 | 0.236 | 0.011 | 0.213 | 0.284 | 0.347 | 0.327 | 0.142 | 0.275 | 122 | 1.05 nM | 0.104 | 1.29 | 0.252 | 0.154 | 2.6 | 0.34 | 0.33 | –
26F2 (antibody, V domains shown, human IgG2 from hybridoma) VH: EVQLVESGGALVQPGGSLRLSCAASGFTFSSFGMSWVRQAPGKGLEWISYISSSSFTIYYADSVKGRFTISRDNAKNSFYLQMNSLRDEDTAVYFCAREGGITMVRGVSSYGMDVWGQGTTVTVSS VL: not shown | -0.014 | 0.275 | 0.477 | 0.411 | 0.366 | 0.523 | 0.399 | 0.009 | -0.003 | 0.334 | -0.009 | 207 | 77.8 pM | 0.294 | 1.48 | -0.003 | 0.368 | 1.4 | 0.49 | -0.008 | –
